Results: publication PMC2659761 (Journal of molecular biology, 2008)

T1: Cif full-length (cycle inhibiting factor) (Escherichia coli (EPEC and EHEC)), P0DUW5
T1 chain: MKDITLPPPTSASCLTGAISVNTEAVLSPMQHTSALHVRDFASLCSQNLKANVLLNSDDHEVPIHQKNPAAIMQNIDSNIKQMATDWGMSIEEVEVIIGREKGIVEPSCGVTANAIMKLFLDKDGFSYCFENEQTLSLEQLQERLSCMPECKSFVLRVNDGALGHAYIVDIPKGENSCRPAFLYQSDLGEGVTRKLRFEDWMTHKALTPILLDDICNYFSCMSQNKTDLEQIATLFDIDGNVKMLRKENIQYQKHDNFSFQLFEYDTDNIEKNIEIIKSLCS


Tests used:
SEC = molecular target: the molecule itself; assay: SEC
[1] = molecular target: T1, Cif full-length (cycle inhibiting …); assay: SEC; settings: remark: other sources report otherwise

Binder	stoichiometry N (SEC)	stoichiometry N [1]
Cif(100-282)-His, cycle inhibiting factor residues 100-282 with C-terminal His6 tag (the crystallized construct) (domain or fragment) REKGIVEPSCGVTANAIMKLFLDKDGFSYCFENEQTLSLEQLQERLSCMPECKSFVLRVNDGALGHAYIVDIPKGENSCRPAFLYQSDLGEGVTRKLRFEDWMTHKALTPILLDDICNYFSCMSQNKTDLEQIATLFDIDGNVKMLRKENIQYQKHDNFSFQLFEYDTDNIEKNIEIIKSLCS	2	
Cif full-length (cycle inhibiting factor), P0DUW5 1-282 (natural protein) MKDITLPPPTSASCLTGAISVNTEAVLSPMQHTSALHVRDFASLCSQNLKANVLLNSDDHEVPIHQKNPAAIMQNIDSNIKQMATDWGMSIEEVEVIIGREKGIVEPSCGVTANAIMKLFLDKDGFSYCFENEQTLSLEQLQERLSCMPECKSFVLRVNDGALGHAYIVDIPKGENSCRPAFLYQSDLGEGVTRKLRFEDWMTHKALTPILLDDICNYFSCMSQNKTDLEQIATLFDIDGNVKMLRKENIQYQKHDNFSFQLFEYDTDNIEKNIEIIKSLCS		2
